Results reported in the supplement of paper PMC10201428.
± gives the standard deviation of the averaged measurements.

Legend:
[1] = tested on: VchCAST RNA-guided transposition machinery (E. coli BL21(DE3) host, lacZ target); assay: relative integration efficiency (T-RL orientation) vs wild-type transposon end (log2 (normalized fold change)); transposon end mutated: right end (5 bp flank + 75 bp right end); higher = more efficient transposition
Method in brief: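 In E. coli BL21(DE3), a T7-driven effector plasmid was paired with a pUC57 mini-transposon donor containing 1549 left-end or 1849 right-end barcoded transposon variants. Cells grew on plates with 0.1 mM IPTG at 37°C for 18 h. Relative integration efficiency was derived from Illumina reads of genomic integration junctions against input plasmids, as a log-transformed output/input barcode fold change normalised to reference barcodes.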

[2] = tested on: VchCAST RNA-guided transposition machinery (E. coli BL21(DE3) host, lacZ target); assay: relative integration efficiency (T-LR orientation) vs wild-type transposon end (log2 (normalized fold change)); transposon end mutated: right end (5 bp flank + 75 bp right end); higher = more efficient transposition
Protocol: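 Pooled, barcoded VchCAST (Tn6677) mini-transposon donor libraries; each variable transposon-end sequence sits in a fixed pDonor mini-transposon context (10-bp barcode and cargo not included). Left- or right-end libraries were co-transformed with pEffector (TniQ-Cascade, TnsABC, lacZ crRNA, T7, 0.1 mM IPTG) into E. coli BL21(DE3) and grown 18 h at 37 C. T-LR and T-RL junction amplicons were sequenced; output/input barcode fold change was normalised to the mean of four wild-type barcodes and log2-transformed. Two biological replicates; zero-count/undetected variants carry floor values (-10 / -15), censored here. Barcode uncoupling by PCR recombination adds noise.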

Sequence | relative integration efficiency (log2) [1] | relative integration efficiency (log2) [2]
ACATTTCTCGATACAACCATAAAATGATAATTACACCCATAAATTGATCATTATCACACCCAATTTAACTATAACGCTCTGATCATAGTCAGACCAACATTGCTACGACCCGTATTCGCACCGACAC | -1.71 ± 0.54 | 1.36 ± 0.048
ACATTTCTGGATACAACCATAAAATGATAATTACACCCATAAATGGATAATTATCACACCCAATTTAACTATAACGCTCTGATCATAGTCAGACCAACATTGCTACGACCCGTATTCGCACCGACAC | -2.35 ± 0.26 | -0.444 ± 0.28
ACATTTCTGGATACAACCATAAAATGATAATTACACCCATAAATGGATCATTATCACACCCAATTTAACTATAACGCTCTGATCATAGTCAGACCAACATTGCTACGACCCGTATTCGCACCGACAC | -3.09 ± 0.37 | -0.629 ± 0.35
ACATTTCTGGATACAACCATAAAATGATAATTACACCCATAAATTCATAATTATCACACCCAATTTAACTATAACGCTCTGATCATAGTCAGACCAACATTGCTACGACCCGTATTCGCACCGACAC | -3.39 ± 0.26 | -0.65 ± 0.075
ACATTTCTGGATACAACCATAAAATGATAATTACACCCATAAATTCATCATTATCACACCCAATTTAACTATAACGCTCTGATCATAGTCAGACCAACATTGCTACGACCCGTATTCGCACCGACAC | -3.59 ± 0.54 | -0.104 ± 0.069
ACATTTCTGGATACAACCATAAAATGATAATTACACCCATAAATTGATAATTATCACACCCAATTTAACTATAACGCTCTGATCATAGTCAGACCAACATTGCTACGACCCGTATTCGCACCGACAC | -1.94 ± 0.42 | 0.495 ± 0.035
ACATTTCTGGATACAACCATAAAATGATAATTACACCCATAAATTGATCATTATCACACCCAATTTAACTATAACGCTCTGATCATAGTCAGACCAACATTGCTACGACCCGTATTCGCACCGACAC | -2.77 ± 0.4 | 0.307 ± 0.3
ACATTTCTTCATACAACCATAAAATGATAATTACACCCATAAATGGATAATTATCACACCCAATTTAACTATAACGCTCTGATCATAGTCAGACCAACATTGCTACGACCCGTATTCGCACCGACAC | -4.17 ± 0.17 | -2.86 ± 0.049
ACATTTCTTCATACAACCATAAAATGATAATTACACCCATAAATGGATCATTATCACACCCAATTTAACTATAACGCTCTGATCATAGTCAGACCAACATTGCTACGACCCGTATTCGCACCGACAC | -4.65 ± 0.36 | -3.69 ± 0.99
ACATTTCTTCATACAACCATAAAATGATAATTACACCCATAAATTCATAATTATCACACCCAATTTAACTATAACGCTCTGATCATAGTCAGACCAACATTGCTACGACCCGTATTCGCACCGACAC | -5.24 ± 0.61 | -3.54 ± 2.7
ACATTTCTTCATACAACCATAAAATGATAATTACACCCATAAATTCATCATTATCACACCCAATTTAACTATAACGCTCTGATCATAGTCAGACCAACATTGCTACGACCCGTATTCGCACCGACAC | -4.8 ± 0.27 | -3.38 ± 0.49
ACATTTCTTCATACAACCATAAAATGATAATTACACCCATAAATTGATAATTATCACACCCAATTTAACTATAACGCTCTGATCATAGTCAGACCAACATTGCTACGACCCGTATTCGCACCGACAC | -3.68 ± 0.52 | -2.1 ± 0.57
ACATTTCTTCATACAACCATAAAATGATAATTACACCCATAAATTGATCATTATCACACCCAATTTAACTATAACGCTCTGATCATAGTCAGACCAACATTGCTACGACCCGTATTCGCACCGACAC | -4.44 ± 0.65 | -3.3 ± 0.16
ACATTTCTTGATACAACCATAAAATGATAATTACACCCATAAATGGATAATTATCACACCCAATTTAACTATAACGCTCTGATCATAGTCAGACCAACATTGCTACGACCCGTATTCGCACCGACAC | -2 ± 0.23 | 0.0926 ± 0.35
ACATTTCTTGATACAACCATAAAATGATAATTACACCCATAAATGGATCATTATCACACCCAATTTAACTATAACGCTCTGATCATAGTCAGACCAACATTGCTACGACCCGTATTCGCACCGACAC | -2.34 ± 0.22 | 0.00332 ± 0.054
ACATTTCTTGATACAACCATAAAATGATAATTACACCCATAAATTCATAATTATCACACCCAATTTAACTATAACGCTCTGATCATAGTCAGACCAACATTGCTACGACCCGTATTCGCACCGACAC | -2.79 ± 0.24 | -0.103 ± 0.73

Sequence | relative integration efficiency (log2) [1] | relative integration efficiency (log2) [2]
ACATTTCTTGATACAACCATAAAATGATAATTACACCCATAAATTCATCATTATCACACCCAATTTAACTATAACGCTCTGATCATAGTCAGACCAACATTGCTACGACCCGTATTCGCACCGACAC | -2.84 ± 0.46 | 0.193 ± 0.077
ACATTTCTTGATACAACCATAAAATGATAATTACACCCATAAATTGATCATTATCACACCCAATTTAACTATAACGCTCTGATCATAGTCAGACCAACATTGCTACGACCCGTATTCGCACCGACAC | -1.92 ± 0.52 | 1.34 ± 0.11
ACATTTGAAGATACAACCATAAAATGATAATTACACCCATAAATTGATAATTATCACACCCATAAATTGATATTGCCTCTGATCATAGTCAGACCAACATTGCTACGACCCGTATTCGCACCGACAC | -0.132 ± 0.019 | -0.786 ± 0.12
ACATTTGATGATACAACCATATAATGATAATAACACCCATAAAATGATAATTATCACACCCAATTTAACTATAACGCTCTGATCATAGTCAGACCAACATTGCTACGACCCGTATTCGCACCGACAC | -1.61 ± 0.26 | 1.073 ± 0.0088
ACATTTGATGATACTACCATTTAATGATAATAACACCCATAAAATGATAATTATCACACCCAATTTAACTATAACGCTCTGATCATAGTCAGACCAACATTGCTACGACCCGTATTCGCACCGACAC | -2.14 ± 0.37 | -0.158 ± 0.16
ACATTTGATGATAGAACCATTTAATGATAATAACACCCATAAAATGATAATTATCACACCCAATTTAACTATAACGCTCTGATCATAGTCAGACCAACATTGCTACGACCCGTATTCGCACCGACAC | -2.75 ± 0.52 | -0.836 ± 0.44
ACATTTGCTGATACAACCATATAATGATAATAACACCCATAAAATGATAATTATCACACCCAATTTAACTATAACGCTCTGATCATAGTCAGACCAACATTGCTACGACCCGTATTCGCACCGACAC | -2.08 ± 0.55 | 0.121 ± 0.33
ACATTTGCTGATACTACCATATAATGATAATAACACCCATAAAATGATAATTATCACACCCAATTTAACTATAACGCTCTGATCATAGTCAGACCAACATTGCTACGACCCGTATTCGCACCGACAC | -2.27 ± 0.43 | -0.422 ± 0.19
ACATTTGCTGATACTACCATATAATGATAATAACACCCCTAAAATGATAATTATCACACCCAATTTAACTATAACGCTCTGATCATAGTCAGACCAACATTGCTACGACCCGTATTCGCACCGACAC | -4.12 ± 0.62 | -2.64 ± 0.76
ACATTTGCTGATACTACCATTTAATGATAATAACACCCATAAAATGATAATTATCACACCCAATTTAACTATAACGCTCTGATCATAGTCAGACCAACATTGCTACGACCCGTATTCGCACCGACAC | -2.31 ± 0.44 | -0.487 ± 0.3
ACATTTGCTGATACTACCATTTAATGATAATAACACCCCTAAAATGATAATTATCACACCCAATTTAACTATAACGCTCTGATCATAGTCAGACCAACATTGCTACGACCCGTATTCGCACCGACAC | -4.9716 ± 0.0047 | -4.07 ± 0.06
ACATTTGCTGATAGAACCATATAATGATAATAACACCAATAAAATGATAATTATCACACCCAATTTAACTATAACGCTCTGATCATAGTCAGACCAACATTGCTACGACCCGTATTCGCACCGACAC | -3.5 ± 0.17 | -2.34 ± 0.35
ACATTTGCTGATAGAACCATATAATGATAATAACACCCATAAAATGATAATTATCACACCCAATTTAACTATAACGCTCTGATCATAGTCAGACCAACATTGCTACGACCCGTATTCGCACCGACAC | -2.94 ± 0.33 | -1.38 ± 0.21
ACATTTGCTGATAGAACCATTTAATGATAATAACACCAATAAAATGATAATTATCACACCCAATTTAACTATAACGCTCTGATCATAGTCAGACCAACATTGCTACGACCCGTATTCGCACCGACAC | -4.53 ± 0.5 | -2.93 ± 0.82
ACATTTGCTGATAGAACCATTTAATGATAATAACACCCATAAAATGATAATTATCACACCCAATTTAACTATAACGCTCTGATCATAGTCAGACCAACATTGCTACGACCCGTATTCGCACCGACAC | -3.66 ± 0.41 | -2.38 ± 0.95
